Reference: PMC10873877

Target: His-AvrXa27 (Xanthomonas oryzae pv. oryzae, UniProt Q4QS99 1-1136)
Experiment: EMSA; […]; buffer, […], pH and temperature not stated
Details: protein: recombinant; tags: His (pET-30a); label: Cy5; blunt

B1: Xa13p-14 (dsDNA)
DNA 1: ATCTCCCCCTACTCTACAT
DNA 2: ATGTAGAGTAGGGGGAGAT
B1: no binding.
